From article PMC5639694 (Journal of medicinal chemistry, 2017)
One block for each molecule: values may come before it. Square brackets hold non-standard residues; d marks the D form. Dap = NC[C@H](N)C(=O)O

How the values were obtained:
[1] = molecular target: T1, mMC4R (Mus musculus, UniProt P56450); settings: AGRP/NDP-MSH chimeric ligands; cited from earlier work
[2] = molecular target: T1, mMC4R; settings: read-out: mMC4R EC50; agonist; previously reported values; cited from earlier work
[3] = molecular target: mMC5R (Mus musculus, UniProt P41149); settings: read-out: mMC5R EC50; agonist; previously reported values; cited from earlier work
Chain of mMC5R (P41149 whole entry): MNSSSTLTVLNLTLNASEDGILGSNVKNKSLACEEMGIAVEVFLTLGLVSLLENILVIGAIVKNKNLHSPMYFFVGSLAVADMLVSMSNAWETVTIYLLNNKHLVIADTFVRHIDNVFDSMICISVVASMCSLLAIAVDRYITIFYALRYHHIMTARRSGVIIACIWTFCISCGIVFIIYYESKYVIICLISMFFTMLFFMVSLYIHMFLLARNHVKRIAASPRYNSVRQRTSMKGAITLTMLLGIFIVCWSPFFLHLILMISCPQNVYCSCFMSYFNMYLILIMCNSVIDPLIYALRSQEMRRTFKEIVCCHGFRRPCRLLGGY

[4] = molecular target: mouse melanocortin 5 receptor (mouse) (UniProt P41149)
Chain of mouse melanocortin 5 receptor (mouse) (P41149 whole entry): as above

[5] = molecular target: mouse melanocortin 3 receptor (mouse) (UniProt P33033)
Chain of mouse melanocortin 3 receptor (mouse) (P33033 whole entry): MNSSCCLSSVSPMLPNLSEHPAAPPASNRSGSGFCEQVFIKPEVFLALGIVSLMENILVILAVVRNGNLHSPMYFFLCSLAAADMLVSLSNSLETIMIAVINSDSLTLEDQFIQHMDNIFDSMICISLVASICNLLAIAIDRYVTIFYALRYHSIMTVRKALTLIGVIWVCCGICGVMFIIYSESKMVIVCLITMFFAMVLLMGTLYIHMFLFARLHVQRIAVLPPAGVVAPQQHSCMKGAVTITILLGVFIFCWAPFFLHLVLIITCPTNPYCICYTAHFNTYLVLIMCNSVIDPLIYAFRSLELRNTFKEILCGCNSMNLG

[6] = molecular target: mouse melanocortin 1 receptor (mouse) (UniProt Q01727)
Chain of mouse melanocortin 1 receptor (mouse) (Q01727 whole entry): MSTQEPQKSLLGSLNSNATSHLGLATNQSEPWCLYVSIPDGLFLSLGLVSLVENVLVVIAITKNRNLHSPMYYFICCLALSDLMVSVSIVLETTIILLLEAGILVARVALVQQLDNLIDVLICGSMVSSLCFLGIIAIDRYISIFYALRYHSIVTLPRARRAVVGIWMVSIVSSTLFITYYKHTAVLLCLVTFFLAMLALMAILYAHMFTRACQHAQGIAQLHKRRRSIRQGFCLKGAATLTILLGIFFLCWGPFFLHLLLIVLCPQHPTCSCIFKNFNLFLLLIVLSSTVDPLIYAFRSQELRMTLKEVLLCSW

[7] = molecular target: mouse melanocortin 4 receptor (mouse) (UniProt P56450)
Chain of mouse melanocortin 4 receptor (mouse) (P56450 whole entry): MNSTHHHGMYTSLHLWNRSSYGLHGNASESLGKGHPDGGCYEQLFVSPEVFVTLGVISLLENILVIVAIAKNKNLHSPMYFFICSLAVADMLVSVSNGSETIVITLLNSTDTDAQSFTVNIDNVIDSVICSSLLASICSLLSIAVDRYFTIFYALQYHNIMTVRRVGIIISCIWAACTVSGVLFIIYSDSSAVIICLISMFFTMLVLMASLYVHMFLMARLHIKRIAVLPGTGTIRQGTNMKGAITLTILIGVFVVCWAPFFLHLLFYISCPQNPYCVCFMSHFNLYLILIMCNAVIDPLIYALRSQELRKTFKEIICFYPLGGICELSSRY

T1 sequence (P56450 whole entry): as above

Molecule: Tyr-c[Asp-His-DPhe-Arg-Trp-Asn-Ala-Phe-Dap]-Tyr-NH2
selectivity for the mMC4R over the mMC3R (reported) [1]: 5 fold

Molecule: CC(=O)N[C@@H](Cc1cnc[nH]1)C(=O)N[C@H](Cc1ccccc1)C(=O)N[C@@H](CCCN=C(N)N)C(=O)N[C@@H](Cc1c[nH]c2ccccc12)C(N)=O [HfRW, Ac-His-DPhe-Arg-Trp-NH2]
EC50 [2]: 14 ± 2 nM
EC50 [3]: 10 ± 3 nM

Molecule: Tyr-c[Cys-His-DPhe-Arg-Trp-Asn-Ala-Phe-Cys]-Tyr-NH2
selectivity for the mMC4R over the mMC3R (reported) [1]: 7 fold

Further lines, results first:

agonist EC50 (cAMP AlphaScreen, HEK293 cells stably expressing the receptor) [4]: 18 nM
agonist EC50 (cAMP AlphaScreen, HEK293 cells stably expressing the receptor) [5]: 260 nM
agonist EC50 (cAMP AlphaScreen, HEK293 cells stably expressing the receptor) [6]: 24 nM
Molecule: cyclo(PH[dF]RW[Dap]AF[dP])

agonist EC50 (cAMP AlphaScreen, HEK293 cells stably expressing the receptor) [7]: 1.4 nM
agonist EC50 (cAMP AlphaScreen, HEK293 cells stably expressing the receptor) [4]: 0.45 nM
agonist EC50 (cAMP AlphaScreen, HEK293 cells stably expressing the receptor) [5]: 32 nM
agonist EC50 (cAMP AlphaScreen, HEK293 cells stably expressing the receptor) [6]: 0.35 nM
B1: c[Pro-His-DPhe-Arg-Trp-Asn-Ala-Phe-DPro] (peptide)
peptide: cyclo(PH[dF]RWNAF[dP])
SMILES: C[C@@H]1NC(=O)[C@H](CC(N)=O)NC(=O)[C@H](Cc2c[nH]c3ccccc23)NC(=O)[C@H](CCCNC(=N)N)NC(=O)[C@@H](Cc2ccccc2)NC(=O)[C@H](Cc2c[nH]cn2)NC(=O)[C@@H]2CCCN2C(=O)[C@H]2CCCN2C(=O)[C@H](Cc2ccccc2)NC1=O

agonist EC50 (cAMP AlphaScreen, HEK293 cells stably expressing the receptor) [7]: 29 nM
agonist EC50 (cAMP AlphaScreen, HEK293 cells stably expressing the receptor) [4]: 2.1 nM
agonist EC50 (cAMP AlphaScreen, HEK293 cells stably expressing the receptor) [6]: 12 nM
B2: c[Pro-His-DPhe-Arg-Trp-Asn-Ala-DPro] (peptide)
peptide: cyclo(PH[dF]RWNA[dP])
SMILES: C[C@@H]1NC(=O)[C@H](CC(N)=O)NC(=O)[C@H](Cc2c[nH]c3ccccc23)NC(=O)[C@H](CCCNC(=N)N)NC(=O)[C@@H](Cc2ccccc2)NC(=O)[C@H](Cc2c[nH]cn2)NC(=O)[C@@H]2CCCN2C(=O)[C@H]2CCCN2C1=O
